In the DeepSol protein solubility set:

Experiment: soluble on expression in E. coli; label from the status in PepcDB or PDB records

Sequence | soluble on expression in E. coli
AAASMDAVTAEKFSPASFLDKKETGVLHFVKYHGLGNDFILVDNRDSSEPKITQEQAAKLCDRNFGVGADGVIFAMPGVNGTDYAMRIFNSDGSEPEMCGNGVRCFARFIAELENLQGKHSFTIHTGAGLIVPEIQDDGQVKVDMGTPILKAQDVPTKLSGNKGEAVVEAELVVDGVSWNVTCVSMGNPHCITFGKKGGPNLKVDDLNLPEIGPKFEHHEMFPARTNTEFVEVLSRSHLKMRVWERGAGATLACGTGACALVVAAVLEGRADRKCTVDLPGGPLEIEWKQEDNHIYMTGPAEAVFYGSALLHHHHHH | soluble
MQYIKIHALDNVAVALADLAEGTEVSVDNQTVTLRQDVARGHKFALTDIAKGANVIKYGLPIGYALADIAAGEHVHAHNTRTNLSDLDQYRYQPDFQDLPAQAADREVQIYRRANGDVGVRNELWILPTVGCVNGIARQIQNRFLKETNNAEGTDGVFLFSHTYGCSQLGDDHINTRTMLQNMVRHPNAGAVLVIGLGCENNQVAAFRETLGDIDPERVHFMICQQQDDEIEAGIAHLHQLYSVMRNDKREPGKLSELKFGLECGGSDGLSGITANPMLGRFSDYVIANGGTTVLTEVPEMFGAEQLLMDHCRDEATFEKLVTMVNDFKQYFIAHDQPIYENPSPGNKAGGITTLEDKSLGCTQKAGSSVVVDVLRYGERLKTPGLNLLSAPGNDAVATSALAGAGCHMVLFSTGRGTPYGGFVPTVKIATNSELAAKKKHWIDFDAGQLIHGKAMPQLLEEFIDTIVEFANGKQTCNERNDFRELAIFKSGVTL | not soluble
SLTTTEVVMENVTAFWEEGGTPVLKDINFKIERGQLLAVAGSTGAGKTSLLMMIMGELEPSEGKIKHSGRISFCSQFSWIMPGTIKENIIFGVSYDEYRYRSVIKACQLEEDISKFAEKDNIVLGEGGITLSGGQRARISLARAVYKDADLYLLDSPFGYLDVLTEKEIFESCVCKLMANKTRILVTSKMEHLKKADKILILHEGSSYFYGTFSELQNLQPDFSSKLGPSAQLKKKLQALKKKNAQLKWKLQALKKKLAQ | soluble
MINKIFALPVIEQLTPVLSRRQLDDLDLIVVDHPQVKASFALQGAHLLSWKPVGEEEVLWLSNNTPFKTGVALRGGVPICWPWFGPAAQQGLPSHGFARNLPWALKAHNEDDNGVMLTFELQSSEATRKYWPHDFTLLARFKVGKTCEIELEAHGEFATTSALHSYFNVGDIANVKVSGLGDRFIDKVNDAKEGVLTDGIQTFPDRTDRVYLNPEACSVIHDATLNRTIDVVHHHHLNVVGWNPGPALSVSMGDMPDDGYKTFVCVETVYATAPQQATEEKPSRLAQTICVAKR | not soluble
MISVTFRQILGLVSLLCATWLYSQCRHIWLLAQDDFNEQFTNFLGEKWWSTDQLELCDDETKDTKWQKNDSICITYVYNMLPVDMEIISWAPTLVIYRNLMSPRQTASFLNFIEQRDLEIQKTSDFGTSIETTHRRANGSFIPPEDSNVTVEIKMQAQKRIPGLNLTVAEHFSALSYLPGGHYAVHYDYLDYRSKQDYDWWMNKTGNRIGTLIFVLKPAEKGGGTVFPSIGSTVRANAGDAFFWFNAQADEEKEMLSNHGGCPIYEGRKVIATIWIRAYNQRILPMAPAGSSIHASWLIPSLSNRFRPEMQTQSPVPN | not soluble
MGSDKIHHHHHHMISSSTVHAFYFSAKYSSFSRAAEILETTQPNISGQIIKLEKDLDTILFIRKQGRVSLSKEGEKLYLVAEKIVNSYKEFDSVVEYFFEEEPIVIVTQPRLYTKYVAPYLTDDLINNNLFHIKTGELTAIKSWLDKEDADIVITEGLFDSHSRYINEGVIDVLKFSWAKKVNEQFDSPCPTLVHSKVWDHWHDLSSALNRNKEFKRKLIIDTPDFAERLIESGVGIGLLPNVMISNNANLEVCHGPTRNNVLGPICLYSKKYSQHKNLRSLVNMFKKESSDS | not soluble
MWPLLKNNVVRTGRRYAVFQPRRFTPRPQHDAFGTKDDVRGFTVFSHAACGASLMDPLSPSRWEVALFPSSPPSLKDSCHLCAWTFGLAGPCAAWLSTRRELVGGFSKIIYIQNSAECWSVRETKRCCRICRWRSTSSSTDLRSNPYPIRWCYCWTMFPPMYPVLLLTASPVPTPLEHHHHHH | not soluble
MLPSQHKLSNSEQFRATIRKGKRAGRSTVVLHFYAEATAGNLATAGGPRFGLVVSKAVGNAVTRHRVSRQLRHVVIAMKDQFPASSHVVVRALPPAATASSEELRADVQAALDKLNRKR | not soluble
AIALTTNASSKIFSKASTAELVGHTRKVHCLSWNPKGGLLGSGGVDCVARIWDVEKLQQKAELEGHTSSIEQLKWDPTANVFFVSASLDHKVLFWDLRARNSEPVASVETQGENINLAWSQDGVYCAVGDKDDNLSFIDVRKFDFFERFQFAEEVNEFKWSPSGPFFFMTLGKEVLVFRWPTMEQQLRLQVHADRCYCLEFDRSGRYFALGGADSIISLWETEYMLCTWTVDRLEYPIRTISFSHDGQFIAAGSEDSVIDISDILNGRQTYALGVKGATNVVAWHPSRHLLAYATEEEYSRDGVAIHLYGTISKDNI | soluble
MHYHGSCHCGTIRFDVEGELTGAMSCNCSICRRKGALLWFVPRDHLRLATPDEQIATYTFNRHLIKHRFCPTCGIHTHGEGVDQQGRAMAAINIRCLDDVDLDAVAVHQYDGRAALEHHHHHH | soluble
MGSDKIHHHHHHMIVLIGGEKGGSGKSCLAQNIAVFLTTECGASVIMVDCDPQRTTSDWIQARNNNPKLASINCVQLYGKIRNDLLSLEQHYDFVIVDCGGQDNLALRATMSVASHILMPLRPKRRDLKTVSHMDDIVATCKMINPKLHASFVITQCPNLPNQANRILEAKEICKTYDINVLDSITYSRNIYDDSEESGLSVLEIEPKGKAAAEIRAIACEMFQVDCAASLTALLKPSTSIAGHHSQINQNQSNHLRGQYGTQRPQEKRYAI | not soluble
MGSDKIHHHHHHMRISANFDGGNIETISLANPDDIQLAIRPDAGGEFYQWFNFRFEATIGKTYTLNILNAGGASYLKGWEDYQAVASYDRQTWFRLPTEYKDGKLSISVELDCEAIQIAYFTPYSYERHLDLISAVQLHPLVSTEHLGLTLDGRDMTLVKVGDDDPSKKSIWITARQHPGETMAEWLVEGLLNQLLDNDCPTSKALLDKANFYIVPNMNPDGSVRGHLRTNAVGANLNREWQTPSLERSPEVYYVVNKMHETGVDLFYDVHGDEGLPYVFLAGCEGIPNYSDKLASLQQDFVAALSLASADFQTEFGYDKDEPGKANLTVACNWVANTFKCLSNTLEMPFKDNANLADPFQGWSPERSVYFGEASLIAMRAVIDKIGQ | not soluble
MRALRLVTSESVTEGHPDKLADRISDAILDALIAQDKKARVAAETLVTTGLVFVAGEITTEGYVDIPNLVRKTVREVGYTRAKYGFDADTCAVLTAIDEQSPDIAGGVNLSYEWRVLKSTDPLDRVGAGDQGLMFGYATDETPELMPLPITLAHRLTMRLAEVRKTGLLPYLRPDGKAQVTVVYEGDKPLYVKTVVVSAQHSPEVEQEQLREDLIREVVRQAIPPEYLKDGETEYLINPSGRFILGGPHADTGLTGRKIIVDTYGGAVPHGGGAFSGKDPTKVDRSASYYARYMAKNIVAAGLARRALVELAYAIGKARPVSLRVETFGTGVLPDEKLTEIAKKVFDPRPLAIIEELDLLRPIYTPTSAYGHFGRPGFPWEETDRVEALRREAGL | soluble
ALPTIHVVTPTYSRPVQKAELTRMANTLLHVPNLHWLVVEDAPRRTPLTARLLRDTGLNYTHLHVETPRNYKLRGDARDPRIPRGTMQRNLALRWLRETFPRNSSQPGVVYFADDDNTYSLELFEEMRSTRRVSVWPVAFVGGLRYEAPRVNGAGKVVRWKTVFDPHRPFAIDMAGFAVNLRLILQRSQAYFKLRGVKGGYQESSLLRELVTLNDLEPKAANCTKILVWHTRTEKPVLVNEGKKGFTDPSVEI | soluble
SLPVLAPVTKDPATSLYTIPFHDGASLVLDVAGPLVWSTCKGGQPPAEIPCSSPTCLLANAYPAPGCPAPSCGSDKHDKPCTAYPYNPVSGACAAGSLSHTRFVANTTDGSKPVSKVNVGVLAACAPSKLLASLPRGSTGVAGLANSGLALPAQVASAQKVANRFLLCLPTGGPGVAIFGGGPVPWPQFTQSMPYTPLVTKGGSPAHYISARSIVVGDTRVPVPEGALATGGVMLSTRLPYVLLRPDVYRPLMDAFTKALAAQHANGAPVARAVVAVAPFGVCYDTKTLGNNLGGYAVPNVQLGLDGGSDWTMTGKNSMVDVKQGTACVAFVEMKGVAAGDGRAPAVILGGAQMEDFVLDFDMEKKRLGFSRLPHFTGCGGL | soluble
MGSDKIHHHHHHMEKKIVYFNKPGRENTEETLRLAVERAKELGIKHLVVASSYGDTAMKALEMAEGLEVVVVTYHTGFVREGENTMPPEVEEELRKRGAKIVRQSHILSGLERSISRKLGGVSRTEAIAEALRSLFGHGLKVCVEITIMAADSGAIPIEEVVAVGGRSRGADTAVVIRPAHMNNFFDAEIKEIICMPRNKR | soluble
AHHHHHHGSYKILEKKEIAMRNTWYKVYAPHVAKKVQPGQFVIVRAFPNGERIPLTPVMWDREEGWIVLIVFTRGKTTMRMAVELKEGDSLLNVAGPLGTPVPMEKFGKILAIGAYTGIVEVYPIAKAWQEIGNDVTTLHVTFEPMVILKEELEKAVTRHIVEPVPLNPNQDFLANMKNVSQRLKEKVRELLESEDWDLVFMVGPVGDQKQVFEVVKEYGVPMKVDLHPIMVDGTGMCGACRVTVGGEVKFACVDGPEFDAYQVDWDELIHRVGFYAKLEKLALEKYMEELKAKGVIMPRLIKERVPTPERSVGERVRDFGEVNLGYSWELALREAERCLQCPVEYAPCIKGCPVHINIPGFIKALRENRDNPSKAVREALRIIWRDNTLPAITGRVCPQEEQCEGACVVGKVGDPINIGKLERFVADYAREHGIDDELLLEEIKGIKRNGKKVAIIGAGPAGLTCAADLAKMGYEVTIYEALHQPGGVLTYGIPEFRLPKEILRKELKKLSLLGVEIKTDHIVGKTITIQELLQEYDAVFIGTGAGTPKLPNIPGINLNGIYSANEFLTRINLMKAYKFPEYDTPIVVGKKVVVIGAGNTAMDAARSALRLGAEVTIAYRRGREDMTARIEEVKHAEEEGVKFMFFVNPVEFIGDENGNVKAVKFEKMKPLEERDSRGKRKIVGTGEYITVEADTVIIAIGQTPNKVLWRATPELKVDEWGRIVVDENLMTSIPGVFAGGDAIRGEATVILAMGDGRKAAKAIHQYLSKKGN | soluble
MGSDKIHHHHHHMLQLTQVRIWVITFKSYLRMNKNMIKGMIVFATIAEKGSMSAAAQQLNLSSSAVSQQVTKLEMDMGISLFHRNTRNLTLTEAGSLFYENCRKVISIVDSTEQKLNNLKGIPSGELKIAAPVGFGGGLLSEPFQYLLATHPQISLNLVMQDGPIDIVNDGIDLAICIGPLSDSNLIARHLADWRMLLCTSPDYLPMHHNIKHPSELAAFNRINHNYTKGELLTHHPSLECFELTGQRISVNNMQTLIQLTLDGLGYAALPEPEVLDYLDKGVLVPLLPEWSFNTYSVYSVTSARDRQPAKVKEALNALSQYFSQTDFNHADQLKGGSYQTEHIKSGKEHRLGT | not soluble
MIMNQQLNATKKDKLQVIDWLIENFPNAFFKKGNQVKPLKIGIFDDLIDFYERLDTPPFSKKSLREALSYYSASPAYLSCQKPDTARVDIYGNEVDVVTPEQAKYAYQRYQERYGNKKSQELK | not soluble
MGSDKIHHHHHHMNYFATVARGLETLAAQELEQLGAHSVEPGFCGVAFEGDRTLLYRVNLWARLPFRILVDIHEFPCLDAKDLYRGIQTIDWQNYLTPDMTLAVNVTGKNAHLNHSHFTSLQVKNAIVDQQQEKLGERSNVELHEPDVRVNVHIERDFCTVKLDSSGNSLHRRGYRPAVGSAPLKESLAAALIQLSGWKQDQMFYDPLCGSGTLPLEASLKALNIAPGLFRESFGFENWLDFDLVLLEKLLQEAKDSQLDTLPAPIWGSDHDENVIEQAINNAQNCGVDNHVWFSQMELADVVAPADSGILLCNPPYGERLGRDSDLGAFYKLLGDVLKQRFKGWTAFVLSGNKELSQSIGLKSSKRIAVYNGALPCQLMKYELY | not soluble
